Sequences and labels used below:
B1: glmS ribozyme (parent)
chain: AUAAAAGCGCCAGAACUACAGAAAUGUAGUUGACGAGGAGGAGGUUUAUCGAAUUUUCGGCGGAUGCCUCCAAA

± gives the standard error. For some assays here: This sample holds only a part of the variants without activity.

Holding throughout (settings): with glucosamine-6-phosphate
Series [1] covers variants of B1. In words: kcat; higher = faster cleavage; RNA array. A digest of the protocol: (§1)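 Glucosamine-6-phosphate, from 40 μM to 10 mM in HEPES/KCl/Mg(OAc)2 buffer, was flowed over sequenced MiSeq chips carrying barcoded ribozyme variants transcribed in situ by E. coli RNA polymerase. A hybridised Cy3 probe tracked the variants at 37 °C as tiles were imaged over ~14 h. kobs, kcat and KM were obtained by fitting normalised per-tile medians to exponential decays and then applying weighted Michaelis–Menten fits across concentrations.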

Variants of B1 are the subject of series [2]. Description: self-cleavage kobs at 2500 uM GlcN6P; higher = faster cleavage; RNA array. An outline of the steps:
as §1

The variants in series [3] derive from B1. Description: self-cleavage kobs at 10000 uM GlcN6P; higher = faster cleavage; RNA array. An outline of the steps:
as §1

In series [4] the parent is B1. Description: self-cleavage kobs at 40 uM GlcN6P; higher = faster cleavage; RNA array. A digest of the protocol: as §1
Variants of B1 are the subject of series [5]. Description: KM; higher = weaker cofactor use; RNA array. A digest of the protocol:
as §1

Series [6] covers variants of B1. Description: self-cleavage kobs at 640 uM GlcN6P; higher = faster cleavage; RNA array. A digest of the protocol: as §1
Series [7] covers variants of B1. In words: self-cleavage kobs at 160 uM GlcN6P; higher = faster cleavage; RNA array. A digest of the protocol: as §1

For the variant A48G C71A, in series [1], the kcat came out at 2.26e-05 ± 4.7e-06 s⁻¹. The “self-cleavage kobs at 2500 uM GlcN6P” value in series [2] came to 2.93e-05 ± 1.3e-05 s⁻¹.
For the variant G13C A48G, the kcat in series [1] was under 1e-05 s⁻¹. Further, in series [2], the “self-cleavage kobs at 2500 uM GlcN6P” value was under 1e-05 s⁻¹. Further, in series [3], the “self-cleavage kobs at 10000 uM GlcN6P” value is under 1e-05 s⁻¹.
As for U57A G66U, the kcat in series [1] is 2.06e-05 ± 1.5e-06 s⁻¹. The “self-cleavage kobs at 40 uM GlcN6P” value in series [4] is under 1e-05 s⁻¹.
As for A15C G32U, the kcat in series [1] worked out at 0.00121 ± 6.6e-05 s⁻¹. For the same variant, in series [5], the Michaelis-Menten constant (KM) turned out to be 6690 ± 540 µM. Moreover, the “self-cleavage kobs at 640 uM GlcN6P” value in series [6] came out at 0.000107 ± 1.4e-05 s⁻¹. Besides, in series [2], the “self-cleavage kobs at 2500 uM GlcN6P” value stood at 0.000321 ± 4.8e-05 s⁻¹. The “self-cleavage kobs at 10000 uM GlcN6P” value in series [3] was determined as 0.000731 ± 7.6e-05 s⁻¹.
C58U C61U: in series [1], the kcat is under 1e-05 s⁻¹. The “self-cleavage kobs at 40 uM GlcN6P” value in series [4] is under 1e-05 s⁻¹. The “self-cleavage kobs at 640 uM GlcN6P” value in series [6] is under 1e-05 s⁻¹.
As to C8U C58U C68A, the kcat in series [1] is 2.49e-05 ± 7.3e-06 s⁻¹. Besides, the “self-cleavage kobs at 2500 uM GlcN6P” value in series [2] is under 1e-05 s⁻¹.
U54C C71G: the kcat in series [1] is 0.00083 ± 0.00027 s⁻¹. Further, the “self-cleavage kobs at 160 uM GlcN6P” value in series [7] came to 0.000132 ± 5.7e-05 s⁻¹. Besides, the “self-cleavage kobs at 640 uM GlcN6P” value in series [6] was determined as 0.000424 ± 0.00013 s⁻¹. Also, in series [2], the “self-cleavage kobs at 2500 uM GlcN6P” value turned out to be 0.000351 ± 0.00011 s⁻¹. Moreover, the “self-cleavage kobs at 10000 uM GlcN6P” value in series [3] was 0.00091 ± 0.00016 s⁻¹.
Regarding A64G U69G C71A, the kcat in series [1] is 2.3e-05 ± 7.7e-06 s⁻¹.
For the variant A33U C67U, the kcat in series [1] came out at 4.33e-05 ± 9.7e-06 s⁻¹. In addition, the “self-cleavage kobs at 640 uM GlcN6P” value in series [6] was found to be 3.39e-05 ± 1.5e-05 s⁻¹. In series [2], the “self-cleavage kobs at 2500 uM GlcN6P” value amounted to 2.49e-05 ± 6.9e-06 s⁻¹. Moreover, the “self-cleavage kobs at 10000 uM GlcN6P” value in series [3] amounted to 4.16e-05 ± 7.3e-06 s⁻¹.
As to G37U U57C, the kcat in series [1] was under 1e-05 s⁻¹. Further, the “self-cleavage kobs at 2500 uM GlcN6P” value in series [2] is under 1e-05 s⁻¹. Also, in series [3], the “self-cleavage kobs at 10000 uM GlcN6P” value is under 1e-05 s⁻¹.
A14C C70A: the kcat in series [1] is 0.000106 ± 1.1e-05 s⁻¹. Besides, the KM in series [5] amounted to 413 ± 170 µM. For the same variant, the “self-cleavage kobs at 160 uM GlcN6P” value in series [7] was 4.49e-05 ± 9.3e-06 s⁻¹. Further, in series [6], the “self-cleavage kobs at 640 uM GlcN6P” value amounted to 5.59e-05 ± 6.8e-06 s⁻¹. Besides, the “self-cleavage kobs at 2500 uM GlcN6P” value in series [2] was determined as 9.55e-05 ± 8e-06 s⁻¹. Further, in series [3], the “self-cleavage kobs at 10000 uM GlcN6P” value turned out to be 0.000102 ± 9.4e-06 s⁻¹.
In the case of U46A A53G, in series [1], the kcat was found to be 0.00162 ± 0.00057 s⁻¹. In addition, the “self-cleavage kobs at 40 uM GlcN6P” value in series [4] stood at 8.49e-05 ± 1.5e-05 s⁻¹. Also, the “self-cleavage kobs at 160 uM GlcN6P” value in series [7] was 0.000201 ± 3.7e-05 s⁻¹. In series [6], the “self-cleavage kobs at 640 uM GlcN6P” value came out at 0.000508 ± 8.1e-05 s⁻¹. In series [2], the “self-cleavage kobs at 2500 uM GlcN6P” value was found to be 0.00104 ± 0.00016 s⁻¹. Also, in series [3], the “self-cleavage kobs at 10000 uM GlcN6P” value turned out to be 0.00261 ± 0.00051 s⁻¹.
On to G43A U55A, for which the kcat in series [1] is 0.00026 ± 7.6e-05 s⁻¹. Also, in series [3], the “self-cleavage kobs at 10000 uM GlcN6P” value stood at 8.23e-05 ± 1.2e-05 s⁻¹.
Turning to G13U A14G C61A, the kcat in series [1] amounted to 1.4e-05 ± 5.4e-06 s⁻¹. For the same variant, the “self-cleavage kobs at 40 uM GlcN6P” value in series [4] was under 1e-05 s⁻¹.
Take U56C C71A: the kcat in series [1] was found to be 4.36e-05 ± 8.2e-06 s⁻¹. Also, the “self-cleavage kobs at 2500 uM GlcN6P” value in series [2] was determined as 5.14e-05 ± 1.2e-05 s⁻¹. Further, the “self-cleavage kobs at 10000 uM GlcN6P” value in series [3] was determined as 3.76e-05 ± 9e-06 s⁻¹.
As to U54C, in series [1], the kcat stood at 0.0582 ± 0.0055 s⁻¹. Also, the KM in series [5] is 2290 ± 240 µM. Besides, the “self-cleavage kobs at 40 uM GlcN6P” value in series [4] stood at 0.00101 ± 1.9e-05 s⁻¹. Besides, in series [7], the “self-cleavage kobs at 160 uM GlcN6P” value came out at 0.00345 ± 0.00027 s⁻¹. For the same variant, the “self-cleavage kobs at 640 uM GlcN6P” value in series [6] came to 0.0121 ± 0.0007 s⁻¹. In series [2], the “self-cleavage kobs at 2500 uM GlcN6P” value was determined as 0.0274 ± 0.0017 s⁻¹. Further, the “self-cleavage kobs at 10000 uM GlcN6P” value in series [3] stood at 0.051 ± 0.0026 s⁻¹.
In the case of U54A, in series [1], the kcat stood at 0.0591 ± 0.015 s⁻¹. Further, the KM in series [5] was 2360 ± 680 µM. In addition, in series [4], the “self-cleavage kobs at 40 uM GlcN6P” value turned out to be 0.00106 ± 2e-05 s⁻¹. In series [7], the “self-cleavage kobs at 160 uM GlcN6P” value stood at 0.00285 ± 0.00013 s⁻¹. Besides, the “self-cleavage kobs at 640 uM GlcN6P” value in series [6] was determined as 0.0124 ± 0.00049 s⁻¹. For the same variant, the “self-cleavage kobs at 2500 uM GlcN6P” value in series [2] turned out to be 0.03 ± 0.0018 s⁻¹. Moreover, the “self-cleavage kobs at 10000 uM GlcN6P” value in series [3] worked out at 0.0497 ± 0.0024 s⁻¹.
As to G13A G40C, the kcat in series [1] is 5.83e-05 ± 8.4e-06 s⁻¹. Also, the KM in series [5] is 2940 ± 1100 µM. Also, the “self-cleavage kobs at 40 uM GlcN6P” value in series [4] was under 1e-05 s⁻¹. Further, the “self-cleavage kobs at 2500 uM GlcN6P” value in series [2] worked out at 2.55e-05 ± 7.4e-06 s⁻¹. The “self-cleavage kobs at 10000 uM GlcN6P” value in series [3] was found to be 4.56e-05 ± 9.9e-06 s⁻¹.
Regarding U57C, the kcat in series [1] stood at 0.000311 ± 3.8e-06 s⁻¹. Moreover, in series [5], the KM is 3180 ± 76 µM. Further, in series [7], the “self-cleavage kobs at 160 uM GlcN6P” value was determined as 1.34e-05 ± 2.2e-06 s⁻¹. Also, the “self-cleavage kobs at 640 uM GlcN6P” value in series [6] came to 5.24e-05 ± 1.5e-06 s⁻¹. The “self-cleavage kobs at 2500 uM GlcN6P” value in series [2] is 0.000136 ± 3.2e-06 s⁻¹. Besides, in series [3], the “self-cleavage kobs at 10000 uM GlcN6P” value turned out to be 0.000236 ± 4.4e-06 s⁻¹.

The record behind these values is the supplement of paper PMC7125110.
